Assay results from PMC314469, “Protein Interaction Networks by Proteome Peptide Scanning” (PLoS Biology, 2004).

T1: Yhr016c SH3 (YSC84_YEAST), P32793
T1 chain: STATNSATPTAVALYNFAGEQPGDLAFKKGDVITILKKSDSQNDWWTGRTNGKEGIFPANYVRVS

T2: Myo5 SH3 (MYO5_YEAST), Q04439
T2 chain: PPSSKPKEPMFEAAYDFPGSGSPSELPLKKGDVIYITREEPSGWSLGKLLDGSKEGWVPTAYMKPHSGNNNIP

T3: Yfr024 SH3 (LSB3_YEAST), P43603
T3 chain: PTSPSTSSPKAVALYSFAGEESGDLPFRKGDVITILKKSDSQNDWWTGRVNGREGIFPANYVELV

T4: Rvs167 SH3 (RV167_YEAST), P39743
T4 chain: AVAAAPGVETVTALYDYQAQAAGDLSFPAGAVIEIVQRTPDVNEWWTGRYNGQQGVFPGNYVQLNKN

T5: Boi2 SH3 (BOI2_YEAST), P39969
T5 chain: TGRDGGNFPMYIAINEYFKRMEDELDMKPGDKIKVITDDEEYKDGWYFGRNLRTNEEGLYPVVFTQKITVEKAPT

T6: Boi1 SH3 (BOI1_YEAST), P38041
T6 chain: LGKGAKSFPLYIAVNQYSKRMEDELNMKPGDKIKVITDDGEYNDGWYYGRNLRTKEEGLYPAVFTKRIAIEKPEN


Columns and labels:
Experiment in all cases: SPOT array
[1] = target: T1, Yhr016c SH3 (YSC84_YEAST), P32793
[2] = target: T2, Myo5 SH3 (MYO5_YEAST), Q04439
[3] = target: T3, Yfr024 SH3 (LSB3_YEAST), P43603
[4] = target: T4, Rvs167 SH3 (RV167_YEAST), P39743
[5] = target: T5, Boi2 SH3 (BOI2_YEAST), P39969
[6] = target: Sho1 SH3 (SHO1_YEAST), P40073
Chain of Sho1 SH3 (SHO1_YEAST), P40073 (P40073 295-366): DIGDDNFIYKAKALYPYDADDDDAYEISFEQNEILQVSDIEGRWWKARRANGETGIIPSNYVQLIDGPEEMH

[7] = target: T6, Boi1 SH3 (BOI1_YEAST), P38041

Row | Binder | normalised SPOT signal, Boehringer light units (BLU); mean over the file's lines of this peptide [1] | normalised SPOT signal, Boehringer light units (BLU); mean over the file's lines of this peptide [2] | normalised SPOT signal, Boehringer light units (BLU); mean over the file's lines of this peptide [3] | normalised SPOT signal, Boehringer light units (BLU); mean over the file's lines of this peptide [4] | normalised SPOT signal, Boehringer light units (BLU); mean over the file's lines of this peptide [5] | normalised SPOT signal, Boehringer light units (BLU); mean over the file's lines of this peptide [6] | normalised SPOT signal, Boehringer light units (BLU); mean over the file's lines of this peptide [7]
1 | LTKIRRRPQQPLTD [YER047C 13-26] | 71.9 | 393 | 937 | 388 | 84.8 | 117 | 3090
2 | LWRPRIVPILPYIT [YDR335W 779-792] | 331 | 1050 | 1540 | 627 | 1870 | 112 | 8230
3 | LSRSKPLPLTPNSK [YCL027W 415-428] | 105 | 324 | 837 | 394 | 86.5 | 55900 | 642
4 | MAFIKILPNNPWPF [YGL065C 457-470] | 4.3 | 59.9 | 75.2 | 46.5 | 0 | 166 | 44.1
5 | LVGLKYEPLFPYFA [YBL076C 285-298] | 25.3 | 125 | 26.7 | 35.1 | 108 | 76.6 | 50.5
6 | LTSVKIVPQRPISD [YAL054C 43-56] | 34.4 | 89 | 1530 | 244 | 54.6 | 15.3 | 100
7 | LSKVRGRPMYPRPA [YBR083W 422-435] | 51.9 | 752 | 342 | 92.6 | 37 | 82.7 | 479
8 | LTSFKGRPKPPKTL [YGR221C 455-468] | 23.2 | 328 | 216 | 50.5 | 12.9 | 189 | 710

The remaining lines, values ahead:

Row | normalised SPOT signal, Boehringer light units (BLU); mean over the file's lines of this peptide [1] | normalised SPOT signal, Boehringer light units (BLU); mean over the file's lines of this peptide [2] | normalised SPOT signal, Boehringer light units (BLU); mean over the file's lines of this peptide [3] | normalised SPOT signal, Boehringer light units (BLU); mean over the file's lines of this peptide [4] | normalised SPOT signal, Boehringer light units (BLU); mean over the file's lines of this peptide [5] | normalised SPOT signal, Boehringer light units (BLU); mean over the file's lines of this peptide [6] | normalised SPOT signal, Boehringer light units (BLU); mean over the file's lines of this peptide [7] | Binder
9 | 26 | 558 | 226 | 28.6 | 51.2 | 102 | 61.8 | LVPSKAIPPLPQLD [YJL066C 98-111]
10 | 7260 | 443 | 30500 | 30400 | 64.1 | 57.5 | 59.6 | MAEFRRVPLPPMAE [YML058W 28-41]
11 | 16200 | 112 | 11800 | 2730 | 18.3 | 189 | 5980 | LYREREEPPLPKRI [YKL214C 53-66]
12 | 21.1 | 231 | 65.5 | 12.4 | 104 | 27 | 190 | LTLTKWDPSKPISL [YKL027W 383-396]
13 | 47.2 | 213 | 2350 | 174 | 31.9 | 53.3 | 807 | LSPAKARPSFPHND [YOR178C 9-22]
14 | 18.8 | 213 | 125 | 44.3 | 6.6 | 22900 | 62.5 | LSYLKDLPFVPFLF [YNL143C 64-77]
15 | 730 | 703 | 1030 | 160 | 37.3 | 93.6 | 135 | LTIFKRPPKQPGHQ [YOL006C 477-490]
16 | 40.3 | 138 | 402 | 32.2 | 0.9 | 3820 | 25.9 | MDGIKELPEFPIKK [YMR266W 737-750]
